Test results taken from doi:10.1101/2022.09.26.509487, “DNA methylation at a single cytosine embedded in the W-box cis-element repels binding of WRKY transcription factors through steric hindrance”.

biological target: T1, AtWRKY40 DBD (Arabidopsis thaliana, UniProt Q9SAH7 131-207); test: BLI; steady state; BLI (Octet RED96e, SA sensors): 50 mM Hepes pH 7, 150 mM NaCl, 0.05% Tween20, 25 C, 1000 rpm; duplex loaded at 40 nM, protein 0.25-10 uM; conditions: protein: recombinant; tags: N-terminal 6xHis (pET28a); label: biotin on forward strand (printed at 5' end); blunt
T1 sequence: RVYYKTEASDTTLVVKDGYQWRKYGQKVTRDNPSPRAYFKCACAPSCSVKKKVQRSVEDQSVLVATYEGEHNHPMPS

Binder | Kd [µM]
RLP43 W-box 5mC4 (dsDNA, 5-methyl-dC at forward strand position 9 (W-box C4)) DNA 1: CGTAGGGTCAAGCTGT DNA 2: ACAGCTTGACCCTACG | 12
RLP43 W-box 5mC4 + 5mC1 5mC2 (dsDNA, 5-methyl-dC at forward position 9 (C4) and reverse positions 10 and 11 (C2, C1)) DNA 1: CGTAGGGTCAAGCTGT DNA 2: ACAGCTTGACCCTACG | 9.2
RLP43 W-box, unmethylated (dsDNA) DNA 1: CGTAGGGTCAAGCTGT DNA 2: ACAGCTTGACCCTACG | 0.63
